Experimental data published in patent US20210309746A1 (COMPASS THERAPEUTICS, published 2021).

B1: anti-CD277 monoclonal antibody mAb1 (antibody, V domains shown)
VH: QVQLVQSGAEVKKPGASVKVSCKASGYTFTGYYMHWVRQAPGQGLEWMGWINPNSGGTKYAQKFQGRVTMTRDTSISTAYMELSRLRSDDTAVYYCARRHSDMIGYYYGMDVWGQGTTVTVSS
VL: DIQMTQSPSSVSASVGDRVTITCRASQGISSWLAWYQQKPGKAPKLLIYAASSLQSGVPSRFSGSGSGTDFTLTISSLQPEDFATYYCQQATDFPPTFGGGTKVEIKR
B2: anti-CD277 antibody mAb3 (antibody, human IgG1, kappa, N297A, V domains shown)
VH: QVQLVQSGAEVKKPGASVKVSCKASGYTFNGYYIHWVRQAPGQGLEWMGWINSNSGGTKYAQKFQGRVTMTRDTSISTAYMELSRLRSDDTAVYYCARRHSDMIGYYYGMDVWGQGTTVTVSS
VL: DIQMTQSPSSVSASVGDRVTITCRASQGISSWLAWYQQKPGKAPKLLIYAASSLQSGVPSRFSGSGSGTDFTLTISSLQPEDFATYYCQQATDFPPTFGGGTKVEIKR
B3: anti-CD277 antibody mAb4 (antibody, human IgG1, kappa, N297A, V domains shown)
VH: QVQLVQSGAEVKKPGASVKVSCKASGYTFTNYYMHWVRQAPGQGLEWMGWINVNSGVTKYAQKFQGRVTMTRDTSISTAYMELSRLRSDDTAVYYCARRHSDMIGYYYGMDVWGQGTTVTVSS
VL: DIQMTQSPSSVSASVGDRVTITCRASQGISSWLAWYQQKPGKAPKLLIYAASSLQSGVPSRFSGSGSGTDFTLTISSLQPEDFATYYCQQATDFPPTFGGGTKVEIKR
B4: anti-CD277 antibody mAb5 (antibody, human IgG1, kappa, N297A, V domains shown)
VH: QVQLVQSGAEVKKPGASVKVSCKASGYTFSNYYIHWVRQAPGQGLEWMGWINANSGGTKYAQKFQGRVTMTRDTSISTAYMELSRLRSDDTAVYYCARRHSDMIGYYYGMDVWGQGTTVTVSS
VL: DIQMTQSPSSVSASVGDRVTITCRASQGISSWLAWYQQKPGKAPKLLIYAASSLQSGVPSRFSGSGSGTDFTLTISSLQPEDFATYYCQQATDFPPTFGGGTKVEIKR
B5: anti-CD277 antibody mAb6 (antibody, human IgG1, kappa, N297A, V domains shown)
VH: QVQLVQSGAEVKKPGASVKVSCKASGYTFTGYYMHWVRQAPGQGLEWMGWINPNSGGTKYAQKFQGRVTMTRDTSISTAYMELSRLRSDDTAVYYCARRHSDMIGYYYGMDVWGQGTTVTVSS
VL: DIQMTQSPSSLSASVGDRVTITCRASQSISLFLNWYQQKPGKAPKLLIYTASSLQSGVPSRFSGSGSGTDFTLTISSLQPEDFATYYCQQANSFPPTFGGGTKVDIKR
B6: anti-CD277 antibody mAb7 (antibody, human IgG1, kappa, N297A, V domains shown)
VH: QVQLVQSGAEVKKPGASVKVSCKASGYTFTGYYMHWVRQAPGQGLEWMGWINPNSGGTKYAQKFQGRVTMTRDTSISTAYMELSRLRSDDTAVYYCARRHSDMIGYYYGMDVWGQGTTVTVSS
VL: DIQMTQSPSSLSASVGDRVTITCRASQDISVYLNWYQQKPGKAPKLLIYTASSLQSGVPSRFSGSGSGTDFTLTISSLQPEDFATYYCQQANSFPPTFGGGTKVDIKR
B7: anti-CD277 antibody mAb8 (antibody, human IgG1, kappa, N297A, V domains shown)
VH: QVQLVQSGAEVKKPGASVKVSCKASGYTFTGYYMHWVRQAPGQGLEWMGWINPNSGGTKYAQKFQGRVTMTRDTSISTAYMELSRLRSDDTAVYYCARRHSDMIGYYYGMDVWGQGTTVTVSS
VL: DIQMTQSPSSLSASVGDRVTITCRASQSIDRYLNWYQQKPGKAPKLLIYAASRLQSGVPSRFSGSGSGTDFTLTISSLQPEDFATYYCQQANSFPPTFGQGTRLEIKR
B8: anti-CD277 antibody mAb10 (antibody, human IgG1, kappa, N297A, V domains shown)
VH: QVQLVQSGAEVKKPGASVKVSCKASGYTFTNYYMHWVRQAPGQGLEWMGWINVNSGVTKYAQKFQGRVTMTRDTSISTAYMELSRLRSDDTAVYYCARRHSDMIGYYYGMDVWGQGTTVTVSS
VL: DIQMTQSPSSLSASVGDRVTITCRASQSISSYLNWYQQKPGKAPKLLIYAASSLQSGVPSRFSGSGSGTDFTLTISSLQPEDFATYYCQQANTFPPTFGQGTRLEIKR
B9: anti-CD277 antibody mAb11 (antibody, human IgG1, kappa, N297A, V domains shown)
VH: QVQLVQSGAEVKKPGASVKVSCKASGYTFSNYYIHWVRQAPGQGLEWMGWINANSGGTKYAQKFQGRVTMTRDTSISTAYMELSRLRSDDTAVYYCARRHSDMIGYYYGMDVWGQGTTVTVSS
VL: DIQMTQSPSSLSASVGDRVTITCRASQSISSYLNWYQQKPGKAPKLLIYAASSLQSGVPSRFSGSGSGTDFTLTISSLQPEDFATYYCQQANTFPPTFGQGTRLEIKR
B10: anti-CD277 antibody mAb9 (antibody, V domains shown)
VH: QVQLVQSGAEVKKPGASVKVSCKASGYTFNGYYIHWVRQAPGQGLEWMGWINSNSGGTKYAQKFQGRVTMTRDTSISTAYMELSRLRSDDTAVYYCARRHSDMIGYYYGMDVWGQGTTVTVSS
VL: DIQLTQSPSSLSASVGDRVTITCRASQSISSYLNWYQQKPGKVPKLLIYAASTLQSGVPSRFSGSGSGTDFTLTISSLQPEDFATYSCQQTNSFPPTFGQGTKVEIKR
B11: anti-CD277 antibody mAb2 (antibody, human IgG1, kappa, N297A, V domains shown)
VH: QVQLVQSGAEVKKPGASVKVSCKASGYTFSNYYIHWVRQAPGQGLEWMGWINANSGGTKYAQKFQGRVTMTRDTSISTAYMELSRLRSDDTAVYYCARRHSDMIGYYYGMDVWGQGTTVTVSS
VL: DIQMTQSPSSLSASVGDRVTITCRASQSIDRYLNWYQQKPGKAPKLLIYAASRLQSGVPSRFSGSGSGTDFTLTISSLQPEDFATYYCQQANSFPPTFGQGTRLEIKR

Key:
[1] = biological target: human BTN3A1 ectopically expressed on K32 cells (human, UniProt O00481 30-513); experiment: cell-based or functional assay
human CD277 = biological target: T1, human CD277 (human, UniProt O00481 30-254, limits assumed); experiment: SPRi (Carterra MX96), antibody printed on chip, his-tagged antigen injected, 1:1 fit
T1 construct: The SPR method text speaks of 'purified recombinant his tagged human CD137', apparently an error for CD277; also called BTN3A1; human CD277 polypeptides
Protocol: The resulting anti-CD277 antibodies from different selection rounds were plotted on kd/kₐ double log plots. Apparent association and dissociation kinetic rate constants (kₐ and kd values) were determined on an SPRi reader (MX96, Carterra) in a running buffer of PBS-C 0.01%. […] antibodies were covalently printed on a Carboxymethyldextran hydrogel 50 L chip (Xantec bioanalytics) on a CFM (Carterra). Freshly mixed activating reagents ([…] 0.4 M EDC and […] 0.1 M sulfo-NHS in H2O) were used to activate the surface of the SPR substrate for 7 minutes. Antibodies at 10 mg/ml in acetic acid buffer pH 4.5 were used for printing for 15 minutes. The printed chip was then quenched on SPRi reader (MX96, Carterra) with 1 M ethanolamine for 15 minutes. For kinetics analysis, purified recombinant his tagged human […] (0, 2.05, 5.12, 12.8, 32, 80, 200, 500 nM) was injected sequentially. For each concentration, there was 5 minutes of association followed by 10 minutes of dissociation. Data were processed and analyzed in SPR Inspection Tool and Scrubber softwares. The kinetic data were referenced with the interstitial reference spots and double-referenced to a buffer cycle, and then fit globally to a 1:1 binding model to determine their apparent association and dissociation kinetic rate constants (kₐ and kd values). The ratio kd/kₐ was used to derive the KD value of each antigen/mAb interaction, i.e. KD=kd/kₐ.

Sequence of human BTN3A1 ectopically expressed on K32 cells (O00481 30-513 limits assumed): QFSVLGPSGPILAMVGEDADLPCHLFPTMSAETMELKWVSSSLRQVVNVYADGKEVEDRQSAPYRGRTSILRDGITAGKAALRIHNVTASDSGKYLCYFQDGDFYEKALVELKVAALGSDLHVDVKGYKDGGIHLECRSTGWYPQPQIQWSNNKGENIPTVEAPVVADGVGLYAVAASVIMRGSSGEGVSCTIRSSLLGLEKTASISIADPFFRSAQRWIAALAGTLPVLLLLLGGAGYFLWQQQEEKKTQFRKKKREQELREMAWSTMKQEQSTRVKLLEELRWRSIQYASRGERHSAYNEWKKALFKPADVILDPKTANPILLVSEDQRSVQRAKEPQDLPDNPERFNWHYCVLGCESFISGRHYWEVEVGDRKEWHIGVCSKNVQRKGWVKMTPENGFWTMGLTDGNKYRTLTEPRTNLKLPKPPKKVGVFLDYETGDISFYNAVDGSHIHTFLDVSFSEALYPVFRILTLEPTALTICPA
T1 sequence (O00481 30-254 limits assumed): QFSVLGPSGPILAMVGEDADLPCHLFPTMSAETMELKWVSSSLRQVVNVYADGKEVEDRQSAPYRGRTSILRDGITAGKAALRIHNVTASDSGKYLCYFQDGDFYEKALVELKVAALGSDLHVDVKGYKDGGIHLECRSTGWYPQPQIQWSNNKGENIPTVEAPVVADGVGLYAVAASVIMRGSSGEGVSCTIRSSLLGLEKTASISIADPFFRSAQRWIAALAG

Row | Binder | IFN-γ release by purified CD4+ T cells stimulated with BTN-K32 cells [1] | IFN-γ release by purified CD8+ T cells stimulated with BTN-K32 cells [1] | proliferation of gated CD4+ T cells within total PBMCs co-cultured with anti-CD3/anti-CD28 coated BTN-K32 cells [1] | proliferation of gated CD8+ T cells within total PBMCs co-cultured with anti-CD3/anti-CD28 coated BTN-K32 cells [1] | proliferation of purified CD4+ T cells stimulated with BTN-K32 cells [1] | proliferation of purified CD8+ T cells stimulated with BTN-K32 cells [1] | Kd (human CD277) | koff (human CD277) | kon (human CD277)
1 | B1 | ≥ 2 fold | ~1300 fold | ≥ 1.5 fold | ≥ 1.5 fold | ≥ 1.5 fold | ≥ 2 fold | 16.7 nM | 0.000384 s⁻¹ | 23000 M⁻¹ s⁻¹
2 | B2 | – | – | – | – | – | – | 6.71 nM | 0.000121 s⁻¹ | 18100 M⁻¹ s⁻¹
3 | B3 | – | – | – | – | – | – | 10.1 nM | 0.00019 s⁻¹ | 18800 M⁻¹ s⁻¹
4 | B4 | – | – | – | – | – | – | 12.9 nM | 0.00025 s⁻¹ | 19300 M⁻¹ s⁻¹
5 | B5 | – | – | – | – | – | – | 4.37 nM | 0.000118 s⁻¹ | 27100 M⁻¹ s⁻¹
6 | B6 | – | – | – | – | – | – | 6.69 nM | 0.000159 s⁻¹ | 23700 M⁻¹ s⁻¹
7 | B7 | – | – | – | – | – | – | 6.05 nM | 0.000138 s⁻¹ | 22800 M⁻¹ s⁻¹
8 | B8 | – | – | – | – | – | – | 4.69 nM | 8.03e-05 s⁻¹ | 17100 M⁻¹ s⁻¹
9 | B9 | – | – | – | – | – | – | 5.13 nM | 9.36e-05 s⁻¹ | 18200 M⁻¹ s⁻¹
10 | B10 | – | – | – | – | – | – | 6.82 nM | 9.71e-05 s⁻¹ | 14200 M⁻¹ s⁻¹
11 | B11 | – | – | – | – | – | – | 2.68 nM | 4.89e-05 s⁻¹ | 18300 M⁻¹ s⁻¹
